According to publication PMC4608764, “The Q Motif Is Involved in DNA Binding but Not ATP Binding in ChlR1 Helicase” (PLoS ONE, 2015):

Tests used:
ChlR1 (DDX11), ChlR1-WT = molecular target: T1, ChlR1 (DDX11), ChlR1-WT (Homo sapiens, UniProt Q96FC9); assay: nitrocellulose filter-binding (dot blot) assay
T1 sequence (Q96FC9 1-906 isoform Q96FC9-2): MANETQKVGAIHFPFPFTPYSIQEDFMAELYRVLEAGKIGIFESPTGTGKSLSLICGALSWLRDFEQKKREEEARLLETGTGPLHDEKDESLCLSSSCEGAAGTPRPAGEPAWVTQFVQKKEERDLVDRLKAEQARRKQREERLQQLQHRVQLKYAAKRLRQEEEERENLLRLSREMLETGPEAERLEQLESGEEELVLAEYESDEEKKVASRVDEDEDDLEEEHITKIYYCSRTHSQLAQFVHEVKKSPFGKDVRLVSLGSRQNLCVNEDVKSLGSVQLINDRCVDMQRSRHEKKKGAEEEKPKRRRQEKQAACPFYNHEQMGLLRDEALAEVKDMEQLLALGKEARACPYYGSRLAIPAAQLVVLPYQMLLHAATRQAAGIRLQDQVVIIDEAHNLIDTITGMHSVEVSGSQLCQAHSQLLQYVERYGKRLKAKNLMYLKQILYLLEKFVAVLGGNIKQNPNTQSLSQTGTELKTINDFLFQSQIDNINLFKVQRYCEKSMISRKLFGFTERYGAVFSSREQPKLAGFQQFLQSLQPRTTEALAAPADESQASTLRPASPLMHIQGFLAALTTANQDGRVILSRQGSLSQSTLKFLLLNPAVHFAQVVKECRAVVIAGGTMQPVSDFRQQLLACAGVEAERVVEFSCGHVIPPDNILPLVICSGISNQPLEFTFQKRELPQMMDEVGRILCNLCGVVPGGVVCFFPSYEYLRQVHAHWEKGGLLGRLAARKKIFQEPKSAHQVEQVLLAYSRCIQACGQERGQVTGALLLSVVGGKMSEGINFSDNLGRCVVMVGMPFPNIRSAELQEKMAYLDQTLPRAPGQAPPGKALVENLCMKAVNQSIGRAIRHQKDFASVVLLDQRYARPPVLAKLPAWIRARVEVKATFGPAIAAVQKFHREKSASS

ChlR1 (DDX11), = molecular target: T2, ChlR1 (DDX11), (Homo sapiens, UniProt Q96FC9, Q23A); assay: nitrocellulose filter-binding (dot blot) assay
T2 sequence (Q96FC9 1-906 isoform Q96FC9-2 Q23A): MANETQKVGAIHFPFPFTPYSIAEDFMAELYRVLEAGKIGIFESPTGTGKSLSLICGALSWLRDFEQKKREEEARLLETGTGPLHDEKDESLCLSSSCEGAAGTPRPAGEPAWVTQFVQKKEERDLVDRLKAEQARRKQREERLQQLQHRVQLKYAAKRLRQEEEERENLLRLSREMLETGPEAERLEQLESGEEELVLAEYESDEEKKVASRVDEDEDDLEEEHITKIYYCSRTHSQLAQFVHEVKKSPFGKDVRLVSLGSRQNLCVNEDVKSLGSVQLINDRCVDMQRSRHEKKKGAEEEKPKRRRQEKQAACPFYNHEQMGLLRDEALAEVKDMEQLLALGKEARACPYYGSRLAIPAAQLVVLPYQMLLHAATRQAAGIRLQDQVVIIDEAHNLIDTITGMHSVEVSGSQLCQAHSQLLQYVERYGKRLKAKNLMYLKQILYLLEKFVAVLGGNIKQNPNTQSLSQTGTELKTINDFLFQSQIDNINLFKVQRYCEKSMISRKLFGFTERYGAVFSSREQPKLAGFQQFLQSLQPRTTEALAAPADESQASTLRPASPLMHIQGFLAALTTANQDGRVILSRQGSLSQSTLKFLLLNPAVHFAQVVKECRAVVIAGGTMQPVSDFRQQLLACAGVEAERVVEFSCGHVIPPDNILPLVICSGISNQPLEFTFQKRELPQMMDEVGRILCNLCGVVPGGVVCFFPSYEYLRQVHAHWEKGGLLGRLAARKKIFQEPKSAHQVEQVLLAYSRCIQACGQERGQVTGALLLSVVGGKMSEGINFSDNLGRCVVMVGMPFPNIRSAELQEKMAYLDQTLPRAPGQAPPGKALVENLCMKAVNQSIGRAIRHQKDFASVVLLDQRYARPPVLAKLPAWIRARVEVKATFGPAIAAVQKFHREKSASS

ChlR1-WT [1] = molecular target: T3, ChlR1-WT (Homo sapiens, UniProt Q96FC9-2 1-906); assay: fluorescence anisotropy; apparent Kd, no ATP, 21 C, 10 nM DNA; EMSA: 40 mM Tris-HCl pH 7.4, 25 mM KCl, 5 mM MgCl2, 2 mM DTT, 2% glycerol, 100 ng/uL BSA, no ATP, 0.5 nM DNA, room temp 30 min; anisotropy: same buffer, 21 C; filter binding: 25 mM Tris-HCl pH 7.5, 25 mM KOAc, 1 mM Mg(OAc)2, 1 mM DTT, 100 ug/mL BSA, 37 C 30 min; details: protein: recombinant; tags: FLAG; fork, 19 bp duplex; 5' ssDNA tail 26 nt (DC26) and 3' ssDNA tail 25 nt (TSTEM25)
T3 sequence: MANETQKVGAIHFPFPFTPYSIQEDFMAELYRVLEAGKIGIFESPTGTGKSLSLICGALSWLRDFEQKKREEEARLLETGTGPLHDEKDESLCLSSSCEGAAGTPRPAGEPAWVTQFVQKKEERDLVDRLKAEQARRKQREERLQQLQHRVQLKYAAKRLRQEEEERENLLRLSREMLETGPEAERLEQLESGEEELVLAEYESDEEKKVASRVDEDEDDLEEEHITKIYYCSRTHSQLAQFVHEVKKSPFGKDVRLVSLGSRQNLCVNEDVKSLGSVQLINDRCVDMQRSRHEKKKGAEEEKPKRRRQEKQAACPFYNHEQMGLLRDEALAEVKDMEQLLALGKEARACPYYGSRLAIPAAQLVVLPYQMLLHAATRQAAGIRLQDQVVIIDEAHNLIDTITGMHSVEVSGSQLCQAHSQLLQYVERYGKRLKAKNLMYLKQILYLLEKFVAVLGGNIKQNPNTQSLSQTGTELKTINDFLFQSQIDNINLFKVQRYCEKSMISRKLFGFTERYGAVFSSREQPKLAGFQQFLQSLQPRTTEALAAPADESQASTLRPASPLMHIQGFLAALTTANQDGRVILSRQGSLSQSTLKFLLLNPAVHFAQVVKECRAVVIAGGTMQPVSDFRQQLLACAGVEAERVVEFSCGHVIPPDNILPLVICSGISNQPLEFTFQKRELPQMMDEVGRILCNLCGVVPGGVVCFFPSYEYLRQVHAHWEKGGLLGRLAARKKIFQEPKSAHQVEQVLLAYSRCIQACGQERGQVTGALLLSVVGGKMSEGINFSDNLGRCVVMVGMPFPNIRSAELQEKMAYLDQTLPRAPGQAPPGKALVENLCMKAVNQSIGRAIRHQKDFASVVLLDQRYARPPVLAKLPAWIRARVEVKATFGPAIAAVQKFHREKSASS

ChlR1-Q23A [2] = molecular target: T4, ChlR1-Q23A (Homo sapiens, UniProt Q96FC9-2 1-906, Q23A); assay: as above; details: protein: recombinant; tags: FLAG; fork, 19 bp duplex; 5' ssDNA tail 26 nt (DC26) and 3' ssDNA tail 25 nt (TSTEM25)
T4 sequence: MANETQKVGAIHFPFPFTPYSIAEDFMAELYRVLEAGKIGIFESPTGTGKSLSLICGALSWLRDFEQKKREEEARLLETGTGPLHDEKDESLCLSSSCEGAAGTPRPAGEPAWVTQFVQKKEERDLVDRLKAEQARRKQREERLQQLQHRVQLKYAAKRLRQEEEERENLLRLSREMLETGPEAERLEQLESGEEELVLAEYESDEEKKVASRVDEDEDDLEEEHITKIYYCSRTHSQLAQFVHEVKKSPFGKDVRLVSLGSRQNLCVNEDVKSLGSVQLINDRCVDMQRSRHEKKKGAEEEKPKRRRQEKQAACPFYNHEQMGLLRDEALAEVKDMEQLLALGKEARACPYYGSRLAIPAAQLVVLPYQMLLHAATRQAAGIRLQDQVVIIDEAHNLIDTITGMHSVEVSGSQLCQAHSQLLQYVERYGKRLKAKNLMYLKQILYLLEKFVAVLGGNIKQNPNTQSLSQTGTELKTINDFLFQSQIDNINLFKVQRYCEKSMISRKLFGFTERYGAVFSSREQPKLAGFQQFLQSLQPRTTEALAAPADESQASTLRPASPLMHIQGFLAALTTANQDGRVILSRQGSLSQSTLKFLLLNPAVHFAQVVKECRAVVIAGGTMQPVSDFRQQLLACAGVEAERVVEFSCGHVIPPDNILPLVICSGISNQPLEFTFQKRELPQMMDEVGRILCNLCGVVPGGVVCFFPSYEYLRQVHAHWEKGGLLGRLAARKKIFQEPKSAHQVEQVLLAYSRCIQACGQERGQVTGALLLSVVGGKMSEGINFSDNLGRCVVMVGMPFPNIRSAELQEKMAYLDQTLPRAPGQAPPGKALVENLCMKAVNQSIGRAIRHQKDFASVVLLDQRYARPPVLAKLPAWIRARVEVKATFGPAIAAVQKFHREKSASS

ChlR1-WT [3] = molecular target: T3, ChlR1-WT; assay: filter binding; 37 C, 1 mM Mg(OAc)2; EMSA: 40 mM Tris-HCl pH 7.4, 25 mM KCl, 5 mM MgCl2, 2 mM DTT, 2% glycerol, 100 ng/uL BSA, no ATP, 0.5 nM DNA, room temp 30 min; anisotropy: same buffer, 21 C; filter binding: 25 mM Tris-HCl pH 7.5, 25 mM KOAc, 1 mM Mg(OAc)2, 1 mM DTT, 100 ug/mL BSA, 37 C 30 min; details: protein: recombinant; tags: FLAG; label: 32P (5' end); fork, 19 bp duplex; 5' ssDNA tail 26 nt (DC26) and 3' ssDNA tail 25 nt (TSTEM25)
ChlR1-Q23A [4] = molecular target: T4, ChlR1-Q23A; assay: as above; details: protein: recombinant; tags: FLAG; label: 32P (5' end); fork, 19 bp duplex; 5' ssDNA tail 26 nt (DC26) and 3' ssDNA tail 25 nt (TSTEM25)
[5] = substrate: Nc1ncnc2c1ncn2[C@@H]1O[C@H](COP(=O)(O)OP(=O)(O)OP(=O)(O)O)[C@@H](O)[C@H]1O; assay: [γ-32P]ATP hydrolysis, thin-layer chromatography; type: biochemical, Homo sapiens; details: 2.1 nM M13mp18 ssDNA, ATP 31-4000 μM, 1 mM Mg acetate, pH 7.5, 37 °C, 30 min, kcat measured separately at 8.5 mM ATP

**Q.** With `Nc1ncnc2c1ncn2[C@@H]1O[C@H](COP(=O)(O)OP(=O)(O)OP(=O)(O)O)[C@@H](O)[C@H]1O` [ATP] as the molecule, how does the Kd (ChlR1 (DDX11), ChlR1-WT) read?
**A.** The Kd was 51.8 nM.

**Q.** And the Kd (ChlR1 (DDX11),)?
**A.** The Kd was 43.8 nM.

B1: Forked duplex (DC26/TSTEM25), fluorescein (dsDNA)
DNA 1: TTTTTTTTTTTTTTTTTTTTTTCCCAGTAAAACGACGGCCAGTGC
DNA 2: GCACTGGCCGTCGTTTTACGGTCGTGACTGGGAAAACCCTGGCG
**Q.** How did the Kd (ChlR1-WT [1]) turn out when B1 was run?
**A.** The Kd was 520 nM.

**Q.** And the Kd (ChlR1-Q23A [2])?
**A.** The Kd was 1000 nM.

B2: Forked duplex (DC26/TSTEM25) (dsDNA)
DNA 1: TTTTTTTTTTTTTTTTTTTTTTCCCAGTAAAACGACGGCCAGTGC
DNA 2: GCACTGGCCGTCGTTTTACGGTCGTGACTGGGAAAACCCTGGCG
**Q.** How did the Kd (ChlR1-WT [3]) turn out when B2 was run?
**A.** The Kd was 106 nM.

**Q.** What about the Kd (ChlR1-Q23A [4]) of the same molecule?
**A.** The Kd was 398 nM.

B3: ChlR1 (DDX11), ChlR1-WT (Homo sapiens) (protein)
chain: MANETQKVGAIHFPFPFTPYSIQEDFMAELYRVLEAGKIGIFESPTGTGKSLSLICGALSWLRDFEQKKREEEARLLETGTGPLHDEKDESLCLSSSCEGAAGTPRPAGEPAWVTQFVQKKEERDLVDRLKAEQARRKQREERLQQLQHRVQLKYAAKRLRQEEEERENLLRLSREMLETGPEAERLEQLESGEEELVLAEYESDEEKKVASRVDEDEDDLEEEHITKIYYCSRTHSQLAQFVHEVKKSPFGKDVRLVSLGSRQNLCVNEDVKSLGSVQLINDRCVDMQRSRHEKKKGAEEEKPKRRRQEKQAACPFYNHEQMGLLRDEALAEVKDMEQLLALGKEARACPYYGSRLAIPAAQLVVLPYQMLLHAATRQAAGIRLQDQVVIIDEAHNLIDTITGMHSVEVSGSQLCQAHSQLLQYVERYGKRLKAKNLMYLKQILYLLEKFVAVLGGNIKQNPNTQSLSQTGTELKTINDFLFQSQIDNINLFKVQRYCEKSMISRKLFGFTERYGAVFSSREQPKLAGFQQFLQSLQPRTTEALAAPADESQASTLRPASPLMHIQGFLAALTTANQDGRVILSRQGSLSQSTLKFLLLNPAVHFAQVVKECRAVVIAGGTMQPVSDFRQQLLACAGVEAERVVEFSCGHVIPPDNILPLVICSGISNQPLEFTFQKRELPQMMDEVGRILCNLCGVVPGGVVCFFPSYEYLRQVHAHWEKGGLLGRLAARKKIFQEPKSAHQVEQVLLAYSRCIQACGQERGQVTGALLLSVVGGKMSEGINFSDNLGRCVVMVGMPFPNIRSAELQEKMAYLDQTLPRAPGQAPPGKALVENLCMKAVNQSIGRAIRHQKDFASVVLLDQRYARPPVLAKLPAWIRARVEVKATFGPAIAAVQKFHREKSASS
**Q.** What does the source list for B3?
**A.** Km [5]: 415.7 ± 58.4 µM; kcat [5]: 1073.3 ± 46.7 s⁻¹
